From the supplement of paper PMC6757056
± gives the standard deviation of the averaged measurements.

B1: library; a variant is named by its letters at N, in order (parent)
chain: GCUGUCACCGAGAAACUGUGAAGUAUAUCUUAAACCUGGGCACUUAAAAGAUAUAUGGAGUUAGUAGUGCAACCUGCUCGGUCUGAUGAGUCCNNNNNNGGACGAAACAGC

Key:
[1] = variants of: B1; assay: FACS-Seq fitted mean relative fluorescence mCherry/BFP without ligand (log10 relative fluorescence); HEK293T; ligand: cyclic di-GMP (c-di-GMP-II aptamer); higher = higher reporter protein expression; settings: ligand present: no
Summary of the method: (§1)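 Fluorescence is reported as a normalized fitted mean of sorted-bin read counts. Lentivirally transduced HEK293T libraries (mCherry ribozyme-switch reporter, EF1α-BFP marker) were enriched, treated with or without ligand for 48 h, and sorted into 6 mCherry/BFP bins for MiSeq sequencing of PCR-amplified genomic DNA. The normal fit was on log10(mCherry/BFP), scaled to five spiked-in control ribozymes.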

[2] = variants of: B1; assay: normalized RNA/DNA level without ligand (relative to sTRSVctl = 100) (log10 (% of sTRSVctl)); HEK293T; ligand: cyclic di-GMP (c-di-GMP-II aptamer); higher = less ribozyme self-cleavage, higher mRNA level; settings: reporter: mCherry (pCS4076), ligand present: no
Procedure: (§2)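 Hammerhead (sTRSV) ribozyme switch libraries with a ligand aptamer grafted on stem I and a randomized N4-6 loop II, cloned into the 3' UTR of mCherry and transiently transfected into HEK293T cells; RNA-Seq 72 h post transfection with ligand added 1 h before transfection; RNA read count / plasmid DNA read count normalized to the non-cleaving sTRSVctl (x100), log10; sequences with >100 DNA reads. FACS-Seq: lentiviral library sorted into 6 bins after 48 h ligand, log-normal fit mean of mCherry/BFP scaled to controls. Printed sequences are partial switch sequences.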

[3] = variants of: B1; assay: FACS-Seq fitted mean relative fluorescence mCherry/BFP with ligand (log10 relative fluorescence); HEK293T; ligand: cyclic di-GMP (c-di-GMP-II aptamer); ligand concentration (+) FACS-Seq: 1 mM; higher = higher reporter protein expression; settings: ligand present: yes
Summary of the method: as §1

[4] = variants of: B1; assay: normalized RNA/DNA level with ligand (relative to sTRSVctl = 100) (log10 (% of sTRSVctl)); HEK293T; ligand: cyclic di-GMP (c-di-GMP-II aptamer); ligand concentration (+) RNA-Seq: 1 mM; higher = less ribozyme self-cleavage, higher mRNA level; settings: reporter: mCherry (pCS4076), ligand present: yes
Procedure: as §2

Variant | FACS-Seq fitted mean (log10) [1] | normalized RNA/DNA level without ligand (log10) [2] | FACS-Seq fitted mean (log10) [3] | normalized RNA/DNA level with ligand (log10) [4]
AGCGAA | -0.109 ± 0.022 | 1.41 ± 0.069 | 0.163 ± 0.081 | 1.61 ± 0.15
CGUCAA | -0.556 ± 0.083 | 1.31 ± 0.093 | -0.352 ± 0.01 | 1.49 ± 0.13
GCUGAA | -0.497 ± 0.029 | 1.45 ± 0.035 | -0.115 ± 0.0012 | 1.65 ± 0.097
UCGAGC | -0.085 ± 0.098 | 1.736 ± 0.017 | 0.204 ± 0.013 | 1.84 ± 0.1
AAAAUC | 0.0212 ± 0.1 | 1.62 ± 0.028 | 0.2003 ± 0.0016 | 1.76 ± 0.06
GUUCUA | -0.743 ± 0.033 | 1.635 ± 0.0068 | -0.5214 ± 0.0042 | 1.75 ± 0.095
AUCGGA | -0.605 ± 0.038 | 1.53 ± 0.043 | -0.31 ± 0.055 | 1.7 ± 0.086
GUGGUG | -0.455 ± 0.011 | 1.69 ± 0.036 | -0.117 ± 0.042 | 1.83 ± 0.12
CAACAU | -0.377 ± 0.0095 | 1.43 ± 0.089 | -0.0626 ± 0.039 | 1.64 ± 0.13
AAAUAU | -0.442 ± 0.052 | 1.6004 ± 0.00073 | -0.152 ± 0.097 | 1.78 ± 0.11
UAAAGA | -0.0343 ± 0.1 | 1.6 ± 0.047 | 0.167 ± 0.024 | 1.73 ± 0.12
CUUUCA | -0.391 ± 0.0064 | 1.42 ± 0.11 | -0.114 ± 0.028 | 1.66 ± 0.051
GCGAAU | -0.502 ± 0.029 | 1.45 ± 0.057 | -0.149 ± 0.079 | 1.64 ± 0.14
AUCUGG | -0.899 ± 0.093 | 1.67 ± 0.058 | -0.683 ± 0.046 | 1.81 ± 0.12
UGGAAU | -0.121 ± 0.12 | 1.57 ± 0.041 | 0.272 ± 0.075 | 1.77 ± 0.13
AACCAA | -0.517 ± 0.035 | 1.43 ± 0.082 | -0.235 ± 0.052 | 1.63 ± 0.1
ACGAAG | -0.359 ± 0.056 | 1.42 ± 0.13 | 0.0516 ± 0.11 | 1.63 ± 0.088
GAAACA | -0.441 ± 0.093 | 1.61 ± 0.023 | -0.185 ± 0.018 | 1.73 ± 0.1
